For 1 molecule, koff results are on record in US20250074995A1 (I MAB BIOPHARMA, published 2025).

The target in this experiment is T1, monomeric human 4-1BB (human, UniProt Q07011 24-186).
T1 construct: SPR analyte or ligand
In words: SPR with monomeric human 4-1BB.

Broadly, the koff is a measure of how fast the partners let go of each other. A high value points to fast dissociation.

B1: parental anti-4-1BB sdAb antibody conjugated with IgG1 Fc fragment (Fc fusion)
chain: QVQLQESGGGLVQPGGSLRLSCAASGYTYSSNCMGWFRQAPGKGLEGVAVICTGGGSPSYADSVKGRFTISRDNAKNTLYLQMNSLRAEDTAVYYCAADLLRAGTPLSSYEFNYWGQGTLVTVSS
notes: also called 4-1BB sdAb-Fc; not shown: IgG1 Fc fragment
With B1, the koff was determined as 0.000168 s⁻¹.
